# Source: article PMC10127746, “Genetic Dissection of Budding Yeast PCNA Mutations Responsible for the Regulated Recruitment of Srs2 Helicase” (mBio, 2023)
# T1: His6-tagged Pol30-A171D (S. cerevisiae, UniProt P15873 1-258, A171D)
# T1 construct: Pol30 (PCNA), S. cerevisiae, POL30 ORF in pET30a, mutant derivative; The methods describe only the wild-type pET-Pol30; source: E. coli BL21, purified (Ni Sepharose)
# T1 sequence (looked up): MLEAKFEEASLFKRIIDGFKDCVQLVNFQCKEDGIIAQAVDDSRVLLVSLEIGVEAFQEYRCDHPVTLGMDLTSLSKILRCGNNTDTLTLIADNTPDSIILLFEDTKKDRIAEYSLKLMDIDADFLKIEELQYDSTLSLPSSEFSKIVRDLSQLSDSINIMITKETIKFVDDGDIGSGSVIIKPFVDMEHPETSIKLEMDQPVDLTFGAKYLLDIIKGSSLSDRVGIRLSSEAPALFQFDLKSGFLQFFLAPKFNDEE
# T2: His6-tagged Pol30-K164R (S. cerevisiae, UniProt P15873 1-258, K164R)
# T2 construct: Pol30 (PCNA), S. cerevisiae, POL30 ORF in pET30a, mutant derivative; The methods describe only the wild-type pET-Pol30; source: E. coli BL21, purified (Ni Sepharose)
# T2 sequence (looked up): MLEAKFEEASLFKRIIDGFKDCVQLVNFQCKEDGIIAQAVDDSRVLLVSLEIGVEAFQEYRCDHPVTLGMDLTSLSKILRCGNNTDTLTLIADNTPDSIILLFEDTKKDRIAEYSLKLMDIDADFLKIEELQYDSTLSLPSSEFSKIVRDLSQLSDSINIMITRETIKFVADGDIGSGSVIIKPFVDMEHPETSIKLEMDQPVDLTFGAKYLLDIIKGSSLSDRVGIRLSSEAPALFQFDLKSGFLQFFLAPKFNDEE
# T3: His6-tagged Pol30 (S. cerevisiae, UniProt P15873 1-258)
# T3 construct: Pol30 (PCNA), S. cerevisiae, POL30 ORF cloned into BamHI-SacI sites of pET30a; also called His6-Pol30; PCNA; source: E. coli BL21, purified (Ni Sepharose)
# T3 sequence (looked up): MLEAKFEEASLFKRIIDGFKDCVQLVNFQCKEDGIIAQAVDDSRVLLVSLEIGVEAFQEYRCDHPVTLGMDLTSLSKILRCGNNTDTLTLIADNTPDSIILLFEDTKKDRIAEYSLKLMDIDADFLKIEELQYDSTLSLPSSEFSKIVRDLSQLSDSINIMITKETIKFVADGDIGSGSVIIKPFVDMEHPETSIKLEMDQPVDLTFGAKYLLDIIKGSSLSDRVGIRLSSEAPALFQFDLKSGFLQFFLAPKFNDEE
# T4: His6-tagged Pol30-I128A (S. cerevisiae, UniProt P15873 1-258, I128A)
# T4 construct: Pol30 (PCNA), S. cerevisiae, POL30 ORF in pET30a, mutant derivative; source: E. coli BL21, purified (Ni Sepharose)
# T4 sequence (looked up): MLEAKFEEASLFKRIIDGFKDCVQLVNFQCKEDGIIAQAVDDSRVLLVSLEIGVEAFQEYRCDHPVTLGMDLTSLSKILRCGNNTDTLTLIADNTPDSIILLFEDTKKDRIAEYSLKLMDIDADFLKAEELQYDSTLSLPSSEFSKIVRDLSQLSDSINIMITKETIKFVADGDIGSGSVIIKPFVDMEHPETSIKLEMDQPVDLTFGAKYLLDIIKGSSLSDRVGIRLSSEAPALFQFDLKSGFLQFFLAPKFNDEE
# Columns and labels:
# Assay in all cases: pull-down; GST pulldown; equal molars of GST-Srs2-CT or GST-Rad30-PIP and His6-Pol30 coincubated overnight at 4°C; Western blot with anti-His6 and anti-GST
# Settings in all cases: both partners purified
# His6-tagged Pol30-A171D = target: T1, His6-tagged Pol30-A171D
# His6-tagged Pol30-K164R = target: T2, His6-tagged Pol30-K164R
# His6-tagged Pol30 = target: T3, His6-tagged Pol30
# His6-tagged Pol30-I128A = target: T4, His6-tagged Pol30-I128A
binding result (His6-tagged Pol30-A171D),binding result (His6-tagged Pol30-K164R),binding result (His6-tagged Pol30),binding result (His6-tagged Pol30-I128A),Binder
binds,binds,binds,binds,"GST-tagged Rad30-PIP (domain or fragment, S. cerevisiae, UniProt Q04049 515-632, looked up, Rad30 (DNA polymerase eta), S. cerevisiae, residues 515 to 632, cloned into BamHI-EcoRI sites of pGEX6; also called GST-Rad30-PIP; Rad30-PIP domain; source: E. coli BL21, purified (glutathione Sepharose)) VVDMFGNQVHTFKSSAGKEDEEKTTSSKADEKTPKLECCKYQVTFTDQKALQEHADYHLALKLSEGLNGAEESSKNLSFGEKRLLFSRKRPNSQHTATPQKKQVTSSKNILSFFTRKK"
–,binds,binds,binds,"GST-tagged Srs2 C-terminal domain (Srs2-CT) (domain or fragment, S. cerevisiae, UniProt P12954 1107-1174, looked up, Srs2 DNA helicase, S. cerevisiae, residues 1107 to 1174, cloned into BamHI-EcoRI sites of pGEX6; Holds the atypical PIP box and the SIM; also called GST-Srs2-CT; Srs2 C terminus; source: E. coli BL21, purified (glutathione Sepharose)) HNPDDTTVDNRPIISNAKFLADAAMKKTQKFSKKVKNEPASSQMDIFSQLSRAKKKSKLNNGEIIVID"
